First the molecules themselves.
B1: SLC2A12 (parent)
chain: LTLVFFVQITGQPNILFYASTVLK
B2: WDFY1 (parent)
chain: LLIPKEDGVITASEDRTIRVWLKR
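Note: lentivirally expressed fusions sorted by FACS into six bins by GFP to DsRed ratio, PSI derived from sequencing read proportions per bin multiplied by bin number.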

The variants in one data set derive from B1. Description: protein stability index of a GFP-peptide fusion (GPS, HEK-293T) (PSI 1-6); higher = more stable. The note with it: c terminus: a fixed tail appended.
As for LTLVFFVQITGQPNILFIASTVLK, the protein stability index stood at 2.47. For LTLVFFVQITGQPNILFTASTVLK, the protein stability index stood at 2.31. Take LTLVFFVQITGQPNILFEASTVLK: the protein stability index came to 2.04. On the same count and under the same terms, the figure for LTLVFFVQQTGQPNILFYASTVLK is 1.99; for LTLVFFVQLTGQPNILFYASTVLK it is 5.05; for LTLVFFVQWTGQPNILFYASTVLK it is 3.12.

For the variant CTLVFFVQITGQPNILFYASTVLK, the protein stability index was 2.29. For the variant GTLVFFVQITGQPNILFYASTVLK, the protein stability index turned out to be 4.08. As for HTLVFFVQITGQPNILFYASTVLK, the protein stability index was found to be 2.7. For the variant ETLVFFVQITGQPNILFYASTVLK, the protein stability index amounted to 2.27.

Regarding NTLVFFVQITGQPNILFYASTVLK, the protein stability index is 1.69. Same read-out and setting: for MTLVFFVQITGQPNILFYASTVLK the value was 3.03; for YTLVFFVQITGQPNILFYASTVLK, 2.85; for WTLVFFVQITGQPNILFYASTVLK, 2.65.

The next data set covers variants of B2. The description is as above. The conditions noted are these: c terminus: a fixed tail appended.
As for LLIPKEDGVITASEDRTIRVWLKY, the protein stability index was 2.07.

As for LLIPKEDGVITASEDRTIRVWLKP, the protein stability index stood at 2.07. With LLIPKEDGVITASEDRTIRVWLKS, the protein stability index came to 2.18. On the same count and under the same terms, for LLIPKEDGVITASEDRTIRVWLKK the value was 2.08; for LLIPKEDGVITASEDRTIRVWLKM, 1.53. With LLIPKEDGVITASEDRTIRVWLKA, the protein stability index is 1.84. For the variant LLIPKEDGVITASEDRTIRVWLKH, the protein stability index worked out at 2.03.

Consider LLIPKEDGVITASEDRTIRVWLKN, for which the protein stability index was determined as 2.34. With LLIPKEDGVITASEDRTIRVWLKI, the protein stability index was 3.32.

As to LLIPKEDGVITASEDRTIRVWLKD, the protein stability index worked out at 3.09. Same read-out and setting: for LLIPKEDGVITASEDRTIRVWLKF the value was 2.44; for LLIPKEDGVITASEDRTIRVWLKL, 1.83. Still for that read-out and setting: for LLIPKEDGVITASEDRTIRVWLKQ the value was 2.71. For LLIPKEDGVITASEDRTIRVWLKG, the protein stability index is 3.37.

For the variant LLIPKEDGVITASEDRTIRVWLKW, the protein stability index stood at 2.01. LLIPKEDGVITASEDRTIRVWLKE: the protein stability index was found to be 2.48. On the same count and under the same terms, the figure for LLIPKEDGVITASEDRTIRVWLKV is 1.69; for LLIPKEDGVITASEDRTIREWLKR it is 1.73.

Regarding LLIPKEDGVITASEDRTIRIWLKR, the protein stability index was found to be 2.64.

With LLIPKEDGVITASEDRTIRRWLKR, the protein stability index turned out to be 1.64. LLIPKEDGVITASEDRTIRMWLKR: the protein stability index is 1.66.

Take LLIPKEDGVITASEDRTIRTWLKR: the protein stability index is 2.95. Consider LLIPKEDGVITASEDRTIRWWLKR, for which the protein stability index was 1.72.

With LLIPKEDGVITASEDRTIRPWLKR, the protein stability index was 2.44. With LLIPKEDGVITASEDRTIRHWLKR, the protein stability index was found to be 2.1. Turning to LLIPKEDGVITASEDRTIRKWLKR, the protein stability index was 2.41.

On to LLIPKEDGVITASEDRTIRDWLKR, for which the protein stability index was determined as 2.52. LLIPKEDGVITASEDRTIRYWLKR: the protein stability index was determined as 1.87. Regarding LLIPKEDGVITASEDRTIRLWLKR, the protein stability index turned out to be 2.29. On the same count and under the same terms, the figure for LLIPKEDGVITASEDRTIRCWLKR is 2.39; for LLIPKEDGVITASEDRTIRSWLKR it is 2.15.

With LLIPKEDGVITASEDRTIRVRLKR, the protein stability index was found to be 2.77. Same read-out and setting: the figure for LLIPKEDGVITASEDRTIRVLLKR is 2.78. Regarding LLIPKEDGVITASEDRTIRVILKR, the protein stability index was found to be 3.04.

For LLIPKEDGVITASEDRTIRVALKR, the protein stability index came to 3.07.

Take LLIPKEDGVITASEDRTIRVVLKR: the protein stability index stood at 3.07. Still for that read-out and setting: the figure for LLIPKEDGVITASEDRTIRVCLKR is 3.44. Same read-out and setting: the figure for LLIPKEDGVITASEDRTIRVELKR is 3.37; for LLIPKEDGVITASEDRTIRVMLKR it is 2.06. Consider LLIPKEDGVITASEDRTIRVTLKR, for which the protein stability index was 2.46. As to LLIPKEDGVITASEDRTIRVNLKR, the protein stability index was 3.33. For LLIPKEDGVITASEDRTIRVHLKR, the protein stability index worked out at 3.17. With LLIPKEDGVITASEDRTIRVQLKR, the protein stability index was determined as 4.25.

For LLIPKEDGVITASEDRTIRVSLKR, the protein stability index stood at 2.8. Consider LLIPKEDGVITASEDRTIRVFLKR, for which the protein stability index is 3.61. For LLIPKEDGVITASEDRTIRVDLKR, the protein stability index was determined as 3.87.

In the case of LLIPKEDGVITASEDRTIYVWLKR, the protein stability index stood at 2.66.

For LLIPKEDGVITASEDRTIWVWLKR, the protein stability index came out at 1.71. On the same count and under the same terms, for LLIPKEDGVITASEDRTIRVWLWR the value was 2.13. On to LLIPKEDGVITASEDRTIRVWLTR, for which the protein stability index was found to be 2.62.

In the case of LLIPKEDGVITASEDRTIRVWLVR, the protein stability index was 2.28. For the variant LLIPKEDGVITASEDRTIRVWLAR, the protein stability index came out at 1.79. On to LLIPKEDGVITASEDRTIRVWLER, for which the protein stability index is 2.9. On to LLIPKEDGVITASEDRTIRVWLSR, for which the protein stability index worked out at 2.1.

Take LLIPKEDGVITASEDRTIRVWLRR: the protein stability index amounted to 2.74. Take LLIPKEDGVITASEDRTIRVWLCR: the protein stability index came to 2.24. For LLIPKEDGVITASEDRTIRVWLHR, the protein stability index came out at 1.7. LLIPKEDGVITASEDRTIRVWLFR: the protein stability index worked out at 3.36. On the same count and under the same terms, for LLIPKEDGVITASEDRTIRVWLDR the value was 2.2. Turning to LLIPKEDGVITASEDRTIRVWLGR, the protein stability index amounted to 1.83. Regarding LLIPKEDGVITASEDRTIRVWLLR, the protein stability index amounted to 2.44. Turning to LLIPKEDGVITASEDRTIRVWLNR, the protein stability index was 2.63.

For the variant LLIPKEDGVITASEDRTIRVWLMR, the protein stability index was 1.76. Consider LLIPKEDGVITASEDRTIRVWLPR, for which the protein stability index is 2.15. LLIPKEDGVITASEDRTIRVWLIR: the protein stability index worked out at 2.1. As for LLIPKEDGVITASEDRTIRVWLQR, the protein stability index is 1.4. For LLIPKEDGVITASEDRTIRVWFKR, the protein stability index turned out to be 2.15.

For the variant LLIPKEDGVITASEDRTIRVWTKR, the protein stability index came to 2.54. Turning to LLIPKEDGVITASEDRTIRVWHKR, the protein stability index was 2.75.

Regarding LLIPKEDGVITASEDRTIRVWSKR, the protein stability index amounted to 2.79. The same measure, in the same setting: for LLIPKEDGVITASEDRTIRVWKKR the value was 2.91; for LLIPKEDGVITASEDRTIRVWRKR, 3.11; for LLIPKEDGVITASEDRTIRVWMKR, 3.01.

As to LLIPKEDGVITASEDRTIRVWNKR, the protein stability index was 2.77. Still for that read-out and setting: for LLIPKEDGVITASEDRTIRVWIKR the value was 2.56; for LLIPKEDGVITASEDRTIRVWEKR, 3.61; for LLIPKEDGVITASEDRTIRVWYKR, 2.83. Still for that read-out and setting: the figure for LLIPKEDGVITASEDRTIRVWVKR is 2.17. Regarding LLIPKEDGVITASEDRTIRVWPKR, the protein stability index stood at 4.22.

For the variant LLIPKEDGVITASEDRTIRVWCKR, the protein stability index amounted to 2.48.

The values are drawn from the supplement of paper PMC10567573.
